# Measured values from patent US20190060431A1 (IMMATICS BIOTECHNOLOGIES, published 2019).
# Where no end group is shown, it is not given here. [ ]: non-standard residue; d: D form. pT = C[C@@H](OP(=O)(O)O)[C@H](N)C(=O)O
# Target: T1, HLA-A*02:01 (human)
# T1 construct: MHC class I monomer in the UV-ligand exchange assay, captured on streptavidin plates; also called peptide-receptive MHC molecules
# Assay: UV-ligand exchange, anti-β2m ELISA; grade of peptide exchange yield (legend: ≥50 = +++)
# From the text: (§1) Candidate peptides for T cell based therapies according to the present invention were further tested for their MHC binding capacity (affinity). The individual peptide-MHC complexes were produced by UV-ligand exchange, where a UV-sensitive peptide is cleaved upon UV-irradiation, and exchanged with the peptide of interest as analyzed. Only peptide candidates that can effectively bind and stabilize the peptide-receptive MHC molecules prevent dissociation of the MHC complexes. To determine the yield of the exchange reaction, an ELISA was performed based on the detection of the light chain (β2m) of stabilized MHC complexes. The assay was performed as generally described in Rodenko et al. (Rodenko et al., 2006).
# (§2) 96 well MAXISorp plates (NUNC) were coated over night with 2 ug/ml streptavidin in PBS at room temperature, washed 4× and blocked for 1 h at 37° C. in 2% BSA containing blocking buffer. Refolded HLA-A*02:01/MLA-001 monomers served as standards, cov-ering the range of 15-500 ng/ml. Peptide-MHC monomers of the UV-exchange reaction were diluted 100-fold in blocking buffer. Samples were incubated for 1 h at 37° C., washed four times, incubated with 2 ug/ml HRP conjugated anti-β2m for 1 h at 37° C., washed again and detected with TMB solution that is stopped with NH2SO4. Absorp-tion was measured at 450 nm. Candidate peptides that show a high exchange yield (preferably higher than 50%, most preferred higher than 75%) are generally preferred for a generation and production of antibodies or fragments thereof, and/or T cell receptors or fragments thereof, as they show sufficient avidity to the MHC molecules and prevent dissociation of the MHC complexes.
row,Binder,peptide exchange yield
1,"GLHSLPPEV [GLHSLPPEV (SEQ ID NO: 10, LRRC8E)]",50 to 75%
2,"GLVATLQSL [GLVATLQSL (SEQ ID NO: 32, IFI6)]",50 to 75%
3,"SLADAVEKV [SLADAVEKV (SEQ ID NO: 23, CCDC122)]",50 to 75%
4,"ALEA[pT]QLYL [ALEAUQLYL (SEQ ID NO: 29, DEPDC4)]",50 to 75%
5,"ALAGSSPQV [ALAGSSPQV (SEQ ID NO: 2, CNTD2)]",50 to 75%
6,"FMSKLVPAI [FMSKLVPAI (SEQ ID NO: 9, TPRG1)]",50 to 75%
7,"FLDEEVKLI [FLDEEVKLI (SEQ ID NO: 43, FTL)]",50 to 75%
8,"KQLELELEV [KQLELELEV (SEQ ID NO: 14, MUC6)]",50 to 75%
9,"FSFPVSVGV [FSFPVSVGV (SEQ ID NO: 20, DUSP4)]",50 to 75%
10,"ALTALQNYL [ALTALQNYL (SEQ ID NO: 6, TFAP2B)]",50 to 75%
11,"KMPEHISTV [KMPEHISTV (SEQ ID NO: 1, CILP)]",50 to 75%

# More lines, now with the values ahead:
row,peptide exchange yield,Binder
1,50 to 75%,"YIDGLESRV [YIDGLESRV (SEQ ID NO: 22, CREB3L4)]"
2,50 to 75%,"YILLQSPQL [YILLQSPQL (SEQ ID NO: 18, MUC6)]"
3,50 to 75%,"SLNDQGYLL [SLNDQGYLL (SEQ ID NO: 41, MCM8)]"
4,50 to 75%,"SLLTEPALV [SLLTEPALV (SEQ ID NO: 21, TBC1D9)]"
5,50 to 75%,"SLFPSLVVV [SLFPSLVVV (SEQ ID NO: 15, PLEC)]"
6,50 to 75%,"SLAEPRVSV [SLAEPRVSV (SEQ ID NO: 27, FASN)]"
7,50 to 75%,"SLAWDVPAA [SLAWDVPAA (SEQ ID NO: 26, FASN)]"

# Target: T1, HLA-A*02:01
# Assay: UV-ligand exchange, anti-β2m ELISA; grade of peptide exchange yield (legend: ≥75% = ++++)
# From the text: as §1, §2
row,Binder,peptide exchange yield
1,"LLM[pT]VAGLKL [LLMUVAGLKL (SEQ ID NO: 38, PCNXL3)]",≥ 75%
2,"GLLGFQAEA [GLLGFQAEA (SEQ ID NO: 24, MAGED1)]",≥ 75%
3,"FIIPTVATA [FIIPTVATA (SEQ ID NO: 7, ABCC11)]",≥ 75%
4,"FLVEHVLTL [FLVEHVLTL (SEQ ID NO: 42, SLC39A6)]",≥ 75%
5,"KLLDMELEM [KLLDMELEM (SEQ ID NO: 39, FAH)]",≥ 75%
6,"GLVQSLTSI [GLVQSLTSI (SEQ ID NO: 8, ABCC11)]",≥ 75%

# The next lines start with the values.
row,peptide exchange yield,Binder
1,≥ 75%,"SMMGLLTNL [SMMGLLTNL (SEQ ID NO: 16, ESR1)]"
2,≥ 75%,"TLLGLAVNV [TLLGLAVNV (SEQ ID NO: 36, CHPT1)]"
3,≥ 75%,"SLLSEIQAL [SLLSEIQAL (SEQ ID NO: 35, AKAP9, PCNT)]"
4,≥ 75%,"SLFSVPFFL [SLFSVPFFL (SEQ ID NO: 28, TM9SF1)]"

# Target: T1, HLA-A*02:01
# Assay: UV-ligand exchange, anti-β2m ELISA; grade of peptide exchange yield (legend: ≥20% = ++)
# From the text: as §1, §2
row,Binder,peptide exchange yield
1,"FLSSEAANV [FLSSEAANV (SEQ ID NO: 30, TNFAIP2)]",20 to 50%
2,"GLSYIYNTV [GLSYIYNTV (SEQ ID NO: 31, COG6)]",20 to 50%
3,"KLYEGIPVL [KLYEGIPVL (SEQ ID NO: 13, NEK10)]",20 to 50%
4,"ILFDVVVFL [ILFDVVVFL (SEQ ID NO: 25, C4orf3)]",20 to 50%
5,"GLLPTSVSPRV [GLLPTSVSPRV (SEQ ID NO: 11, SCUBE2)]",20 to 50%
6,"ILTELPPGV [ILTELPPGV (SEQ ID NO: 33, ZNF407)]",20 to 50%
7,"ALEEQLHQV [ALEEQLHQV (SEQ ID NO: 19, KRT25, KRT28, KRT27)]",20 to 50%
8,"ALNPVIYTV [ALNPVIYTV (SEQ ID NO: 5, DRD4)]",20 to 50%
9,"KAFPFYNTV [KAFPFYNTV (SEQ ID NO: 12, NAIP)]",20 to 50%

# The next lines start with the values.
row,peptide exchange yield,Binder
1,20 to 50%,"TIASSIEKA [TIASSIEKA (SEQ ID NO: 17, STPG2)]"
2,20 to 50%,"SLVEGEAVHLA [SLVEGEAVHLA (SEQ ID NO: 4, TFAP2E, TFAP2A, TFAP2B, TFAP2C)]"
